Laboratory results published in patent US11505576B2, “Polypeptides based on a scaffold” (AFFIBODY AB, priority 2018, dated 2022).
Entries after “also recorded” stand apart in the source; their conditions may differ.

Experiments:
[1] = Circular dichroism spectroscopy analysis (CD spectra, variable temperature measurement, refolding); assay type: physicochemical
Protocol: The respective Y variant was diluted to 0.5 mg/ml in PBS. A CD spectrum at 250-195 nm was obtained at 20° C. In addition, a variable temperature measurement (VTM) was performed to determine the melting temperature (Tm). In the VTM, absorbance was measured at 221 nm while the temperature was raised from 20° C. to 90° C. with a temperature gradient of 5° C./min. A new CD spectrum was obtained at 20° C. after the heating procedure, in order to study the refolding ability of the Y variants. The CD measurements were performed on a Jasco J-810 spectropolarimeter (Jasco Scandinavia AB) using a cell with an optical path length of 1 mm.
(§1) Produced Y variants were subjected to CD and SPR analyses according to the methods described in Example 1.
(§2) The Y variants were cloned, produced and characterized according to the general methods described in Example 1. Produced Y variants with point mutations and/or N-terminal or C-terminal extensions were subjected to CD and SPR analyses as described in Example 1.
(§3) Produced Y variants were subjected to CD and SPR analyses according to the methods described in Example 1. In addition, CD spectra of selected IL-6 binding variants were also recorded at 60, 70, 80 and 90° C.
(§4) The Y variants were cloned, produced and characterized according to the general methods described in Example 1. Produced Y variants with point mutations were subjected to CD and SPR analyses as described in Example 1. In addition, CD spectra of the IL-6 binding variants were also recorded at 60, 70, 80 and 90° C.

insulin = molecular target: T1, insulin (Homo sapiens, UniProt P01308); experiment: Kinetic analysis using surface plasmon resonance (Biacore T200), immobilized insulin; assay type: binding
T1 construct: purchased Roche 1376497
T1 sequence (P01308 25-54 limits assumed): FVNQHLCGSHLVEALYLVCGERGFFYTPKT
T1 sequence (P01308 90-110 limits assumed): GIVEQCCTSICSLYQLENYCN
Protocol: Kinetic constants (ka and kd) and affinities (KD) were determined for His6-tagged Y variants using a Biacore T200 instrument (GE Healthcare). Target proteins C4, IL-6 and insulin, respectively, were immobilized in separate flow cells on the carboxylated dextran layer of different CM5 chip surfaces (GE Healthcare). Immobilization was performed using amine coupling chemistry according to the manufacturer's protocol and PBS pH 7.4 supplemented with 0.1 Tween20 (PBST 0.1%) as running buffer. The ligand immobilization levels on the surfaces were 3280-8830 RU for C4, 495-1184 RU for IL-6, and 270-282 RU for insulin. One flow cell surface on each chip was activated and deactivated for use as blank during analyte injections. In the kinetic experiment, PBST 0.1% was used as running buffer at a flow rate of 30 μl/min. The analytes, i.e. Y variants, were each diluted in PBST 0.1 buffer at concentrations of 1000, 500, 100, 50 and 10 nM and injected for 5 min, followed by dissociation in running buffer for 3 min. After dissociation, the surfaces were regenerated with one injection of 30 μl 10 mM HCl. Kinetic constants were calculated from the sensorgrams using the Langmuir 1:1 model of Biacore T200 Evaluation software 2.0 (GE Healthcare).
as §1, §2, §3, §4

[2] = Table 2, Ylib001Naive.I selection, MGSSHHHHHHGSS-[Y#####]-ASGSVD, 0.5 mg/ml in PBS, 221 nm, 20-90° C.
[3] = Table 3, mutation study 1, MGSSHHHHHHGSS-[Y#####]
[4] = Table 2, His6-tagged Y variant, MGSSHHHHHHGSS-[Y#####]-ASGSVD
[5] = Table 4, mutation study 2, MGSSHHHHHHGSS-[Y#####]

Q: Which Tm [1, 2] does the source give for “Y00001: C4 binding Y variant from Ylib001Naive.I, SEQ ID NO:1 (LAEAKEAAIAELDSKGINEAIISKIERAESVEEVEYWKEEILAQLP; Engineered C4 binding Y variant)” here?
A: 61 °C

Q: What about the Tm [1, 3] of the same substance?
A: 57 °C

Q: With “Y00004: C4 binding Y variant from Ylib001Naive.I, SEQ ID NO:4 (LAEAKEAANAELDSYGVDADLIKKIERAESVEEVEFWKEEILAHLP; Engineered C4 binding Y variant)” as the substance, how does the Tm [1, 2] read?
A: 45 °C

Q: Which Tm [1, 2] does the source give for “Y00005: C4 binding Y variant from Ylib001Naive.I, SEQ ID NO:5 (LAEAKEAAIAELDSAGVNEVQKSKIEQASSVEEVEFWKEEILAQLP; Engineered C4 binding Y variant)” here?
A: 60 °C

Q: Which Tm [1, 2] does the source give for “Y00006: C4 binding Y variant from Ylib001Naive.I, SEQ ID NO:6 (LAEAKEAAIAELDSYGVVANLKKKIEIAKSVEQVEFWKEEILAQLP; Engineered C4 binding Y variant)” here?
A: 49 °C

Q: Which results are given for “Y00032: insulin binding Y variant from Ylib001Naive.I, SEQ ID NO:90 (LAEAKEAAIAELDSKGVGAYQKSFIELAKSVEHVELLKEAILADLP; Engineered insulin binding Y variant)”?
A: Kd (insulin; [4]): 50 nM; Kd (insulin; [3]): 63 nM; α-helical content / ability to fold into an α-helical structure ([1]; CD spectrum at 20° C.): considerably higher α-helical content; also recorded: good ability to fold into an α-helical structure; Tm [1, 2]: 47 °C; Tm [1, 3]: 49 °C; Tm [1, 5]: 49 °C

Q: For “Y00125: insulin binding Y variant, SEQ ID NO:106; differs from Y00032 by N in position 9 (LAEAKEAANAELDSKGVGAYQKSFIELAKSVEHVELLKEAILADLP; Engineered insulin binding Y variant)”, which Kd (insulin; [4]) is on record?
A: 110 nM

Q: And the Tm [1, 2]?
A: 35 °C

Q: For “Y00262: C4 binding Y variant, Y00001 with S23K, SEQ ID NO:18 (LAEAKEAAIAELDSKGINEAIIKKIERAESVEEVEYWKEEILAQLP; Engineered C4 binding Y variant)”, which Tm [1, 3] is on record?
A: 61 °C

Q: What about the Tm [1, 5] of the same substance?
A: 61 °C

Q: For “Y00263: insulin binding Y variant, Y00032 with D13K, SEQ ID NO:110 (LAEAKEAAIAELKSKGVGAYQKSFIELAKSVEHVELLKEAILADLP; Engineered insulin binding Y variant)”, which Kd (insulin; [3]) is on record?
A: 130 nM

Q: And the Tm [1, 3]?
A: 43 °C

Q: With “Y00264: insulin binding Y variant, Y00032 with K15Y, SEQ ID NO:111 (LAEAKEAAIAELDSYGVGAYQKSFIELAKSVEHVELLKEAILADLP; Engineered insulin binding Y variant)” as the substance, how does the Kd (insulin; [3]) read?
A: 64 nM

Q: And the Tm [1, 3]?
A: 48 °C

Q: For “Y00265: insulin binding Y variant, Y00032 with V17I, SEQ ID NO:112 (LAEAKEAAIAELDSKGIGAYQKSFIELAKSVEHVELLKEAILADLP; Engineered insulin binding Y variant)”, which Kd (insulin; [3]) is on record?
A: 120 nM

Q: And the Tm [1, 3]?
A: 47 °C

Q: Which results are given for “Y00266: insulin binding Y variant, Y00032 with G18S, SEQ ID NO:113 (LAEAKEAAIAELDSKGVSAYQKSFIELAKSVEHVELLKEAILADLP; Engineered insulin binding Y variant)”?
A: Kd (insulin; [3]): 56 nM; Tm [1, 3]: 50 °C

Q: For “Y00267: insulin binding Y variant, Y00032 with A19E, SEQ ID NO:114 (LAEAKEAAIAELDSKGVGEYQKSFIELAKSVEHVELLKEAILADLP; Engineered insulin binding Y variant)”, which Kd (insulin; [3]) is on record?
A: 59 nM

Q: And the Tm [1, 3]?
A: 48 °C

Q: Which Kd (insulin; [3]) does the source give for “Y00268: insulin binding Y variant, Y00032 with K22I, SEQ ID NO:115 (LAEAKEAAIAELDSKGVGAYQISFIELAKSVEHVELLKEAILADLP; Engineered insulin binding Y variant)” here?
A: 84 nM

Q: And the Tm [1, 3]?
A: 49 °C

Q: Which Kd (insulin; [3]) does the source give for “Y00269: insulin binding Y variant, Y00032 with S23K, SEQ ID NO:116 (LAEAKEAAIAELDSKGVGAYQKKFIELAKSVEHVELLKEAILADLP; Engineered insulin binding Y variant)” here?
A: 390 nM

Q: What about the Tm [1, 3] of the same substance?
A: 50 °C

Q: Which results are given for “Y00270: insulin binding Y variant, Y00032 with K22I + S23K, SEQ ID NO:117 (LAEAKEAAIAELDSKGVGAYQIKFIELAKSVEHVELLKEAILADLP; Engineered insulin binding Y variant)”?
A: Kd (insulin; [3]): 77 nM; Tm [1, 3]: 52 °C; Tm [1, 5]: 52 °C

Q: Which Kd (insulin; [3]) does the source give for “Y00271: insulin binding Y variant, Y00032 with E26Q, SEQ ID NO:118 (LAEAKEAAIAELDSKGVGAYQKSFIQLAKSVEHVELLKEAILADLP; Engineered insulin binding Y variant)” here?
A: 47 nM

Q: What about the Tm [1, 3] of the same substance?
A: 49 °C

Q: Which results are given for “Y00272: insulin binding Y variant, Y00032 with A28G, SEQ ID NO:119 (LAEAKEAAIAELDSKGVGAYQKSFIELGKSVEHVELLKEAILADLP; Engineered insulin binding Y variant)”?
A: Kd (insulin; [3]): 110 nM; Tm [1, 3]: 34 °C

Q: With “Y00273: insulin binding Y variant, Y00032 with E32Q, SEQ ID NO:120 (LAEAKEAAIAELDSKGVGAYQKSFIELAKSVQHVELLKEAILADLP; Engineered insulin binding Y variant)” as the substance, how does the Kd (insulin; [3]) read?
A: 77 nM

Q: With “Y00274: insulin binding Y variant, Y00032 with E35Q, SEQ ID NO:121 (LAEAKEAAIAELDSKGVGAYQKSFIELAKSVEHVQLLKEAILADLP; Engineered insulin binding Y variant)” as the substance, how does the Kd (insulin; [3]) read?
A: 56 nM

Q: And the Tm [1, 3]?
A: 53 °C

Q: With “Y00282: C4 binding Y variant, Y00262 with I17V, SEQ ID NO:19 (LAEAKEAAIAELDSKGVNEAIIKKIERAESVEEVEYWKEEILAQLP; Engineered C4 binding Y variant)” as the substance, how does the Tm [1, 5] read?
A: 61 °C

Q: For “Y00283: C4 binding Y variant, Y00262 with N18S, SEQ ID NO:20 (LAEAKEAAIAELDSKGISEAIIKKIERAESVEEVEYWKEEILAQLP; Engineered C4 binding Y variant)”, which Tm [1, 5] is on record?
A: 61 °C

Q: For “Y00284: C4 binding Y variant, Y00262 with E19A, SEQ ID NO:21 (LAEAKEAAIAELDSKGINAAIIKKIERAESVEEVEYWKEEILAQLP; Engineered C4 binding Y variant)”, which Tm [1, 5] is on record?
A: 64 °C

Q: With “Y00285: C4 binding Y variant, Y00262 with I22K, SEQ ID NO:22 (LAEAKEAAIAELDSKGINEAIKKKIERAESVEEVEYWKEEILAQLP; Engineered C4 binding Y variant)” as the substance, how does the Tm [1, 5] read?
A: 57 °C

Q: With “Y00286: C4 binding Y variant, Y00262 with E26Q, SEQ ID NO:23 (LAEAKEAAIAELDSKGINEAIIKKIQRAESVEEVEYWKEEILAQLP; Engineered C4 binding Y variant)” as the substance, how does the Tm [1, 5] read?
A: 62 °C

Q: For “Y00287: C4 binding Y variant, Y00262 with E35Q, SEQ ID NO:24 (LAEAKEAAIAELDSKGINEAIIKKIERAESVEEVQYWKEEILAQLP; Engineered C4 binding Y variant)”, which Tm [1, 5] is on record?
A: 62 °C

Q: Which Tm [1, 5] does the source give for “Y00288: C4 binding Y variant, Y00262 with E39Q, SEQ ID NO:25 (LAEAKEAAIAELDSKGINEAIIKKIERAESVEEVEYWKQEILAQLP; Engineered C4 binding Y variant)” here?
A: 66 °C

Q: For “Y00289: C4 binding Y variant, Y00262 with E35Q + E39Q, SEQ ID NO:26 (LAEAKEAAIAELDSKGINEAIIKKIERAESVEEVQYWKQEILAQLP; Engineered C4 binding Y variant)”, which Tm [1, 5] is on record?
A: 65 °C

Q: With “Y00290: C4 binding Y variant, Y00262 with E35Q + A43K, SEQ ID NO:27 (LAEAKEAAIAELDSKGINEAIIKKIERAESVEEVQYWKEEILKQLP; Engineered C4 binding Y variant)” as the substance, how does the Tm [1, 5] read?
A: 69 °C

Q: With “Y00291: C4 binding Y variant, Y00262 with E35Q + E39Q + A43K, SEQ ID NO:28 (LAEAKEAAIAELDSKGINEAIIKKIERAESVEEVQYWKQEILKQLP; Engineered C4 binding Y variant)” as the substance, how does the Tm [1, 5] read?
A: 66 °C
